Experimental findings from publication PMC4441004, “Functional Characterization and Categorization of Missense Mutations that Cause Methylmalonyl‐CoA Mutase (MUT) Deficiency” (Human Mutation, 2014) are described below.

The labels stand for the following.
B1: MUT p.F573S (enzyme, human)
chain: LHQQQPLHPEWAALAKKQLKGKNPEDLIWHTPEGISIKPLYSKRDTMDLPEELPGVKPFTRGPYPTMYTFRPWTIRQYAGFSTVEESNKFYKDNIKAGQQGLSVAFDLATHRGYDSDNPRVRGDVGMAGVAIDTVEDTKILFDGIPLEKMSVSMTMNGAVIPVLANFIVTGEEQGVPKEKLTGTIQNDILKEFMVRNTYIFPPEPSMKIIADIFEYTAKHMPKFNSISISGYHMQEAGADAILELAYTLADGLEYSRTGLQAGLTIDEFAPRLSFFWGIGMNFYMEIAKMRAGRRLWAHLIEKMFQPKNSKSLLLRAHCQTSGWSLTEQDPYNNIVRTAIEAMAAVFGGTQSLHTNSFDEALGLPTVKSARIARNTQIIIQEESGIPKVADPWGGSYMMECLTNDVYDAALKLINEIEEMGGMAKAVAEGIPKLRIEECAARRQARIDSGSEVIVGVNKYQLEKEDAVEVLAIDNTSVRNRQIEKLKKIKSSRDQALAERCLAALTECAASGDGNILALAVDASRARCTVGEITDALKKVSGEHKANDRMVSGAYRQEFGESKEITSAIKRVHKFMEREGRRPRLLVAKMGQDGHDRGAKVIATGFADLGFDVDIGPLFQTPREVAQQAVDADVHAVGISTLAAGHKTLVPELIKELNSLGRPDILVMCGGVIPPQDYEFLFEVGVSNVFGPGTRIPKAAVQVLDDIEKCLEKKQQSV
notes: methylmalonyl-CoA mutase (MUT), human; construct 'hMUT' of Froese et al., 2010b with a patient missense mutation; Same construct limits as m1 (see its note); source: E. coli, purified (Ni-NTA, Superdex 200, TEV cleavage, reverse Ni-NTA)
B2: MUT p.Y231N (enzyme, human)
chain: B1 chain with Y199N, S541F
notes: as for B1
B3: MUT p.Y100C (enzyme, human)
chain: B1 chain with Y68C, S541F
notes: as for B1
B4: MUT p.R369H (enzyme, human)
chain: B1 chain with R337H, S541F
notes: as for B1
B5: MUT p.G717V (enzyme, human)
chain: B1 chain with S541F, G685V
notes: as for B1
B6: MUT p.R694W (enzyme, human)
chain: B1 chain with S541F, R662W
notes: as for B1
B7: MUT p.N366S (enzyme, human)
chain: B1 chain with N334S, S541F
notes: as for B1
B8: MUT p.P86L (enzyme, human)
chain: B1 chain with P54L, S541F
notes: as for B1
B9: MUT p.M700K (enzyme, human)
chain: B1 chain with S541F, M668K
notes: as for B1
B10: MUT p.G426R (enzyme, human)
chain: B1 chain with G394R, S541F
notes: as for B1
B11: MUT p.G648D (enzyme, human)
chain: B1 chain with S541F, G616D
notes: as for B1
B12: MUT p.R694L (enzyme, human)
chain: B1 chain with S541F, R662L
notes: as for B1
B13: MUT p.T387I (enzyme, human)
chain: B1 chain with T355I, S541F
notes: as for B1
B14: MUT p.V633G (enzyme, human)
chain: B1 chain with S541F, V601G
notes: as for B1
B15: MUT p.Q218H (enzyme, human)
chain: B1 chain with Q186H, S541F
notes: as for B1

Positions count from the first letter of the chain named.

The data set deals with the molecule itself. The data set is described as follows: SEC; Superdex 200 in the large-scale purification from E. coli; retention volumes of the mutants compared with wt MUT; data not shown.
Broadly, the stoichiometry N is the number of molecules, sites or subunits per partner or assembly. Take B1: the “stoichiometry N” value is 2. For B2, the “stoichiometry N” value stood at 2. Turning to B3, the “stoichiometry N” value amounted to 2. For the protein B4, the “stoichiometry N” value turned out to be 2. Turning to B5, the “stoichiometry N” value amounted to 2. As for B6, the “stoichiometry N” value turned out to be 2. On to B7, for which the “stoichiometry N” value is 2.

Consider B8, for which the “stoichiometry N” value amounted to 2. On to B9, for which the “stoichiometry N” value came to 2. With B10, the “stoichiometry N” value was determined as 2. B11: the “stoichiometry N” value was determined as 2.

B12: the “stoichiometry N” value was determined as 2. Consider B13, for which the “stoichiometry N” value is 2. Turning to B14, the “stoichiometry N” value came out at 2. On to B15, for which the “stoichiometry N” value was 2.
